Assay [1] has as its target T1, human ADAMTS5 (human, UniProt Q9UNA0 262-622, limits assumed).
T1 construct: Octet and ELISA used 'recombinant human ADAMTS5'; also called recombinant human ADAMTS5; ADAMTS5 (R&D Systems 2198-AD)
T1 sequence: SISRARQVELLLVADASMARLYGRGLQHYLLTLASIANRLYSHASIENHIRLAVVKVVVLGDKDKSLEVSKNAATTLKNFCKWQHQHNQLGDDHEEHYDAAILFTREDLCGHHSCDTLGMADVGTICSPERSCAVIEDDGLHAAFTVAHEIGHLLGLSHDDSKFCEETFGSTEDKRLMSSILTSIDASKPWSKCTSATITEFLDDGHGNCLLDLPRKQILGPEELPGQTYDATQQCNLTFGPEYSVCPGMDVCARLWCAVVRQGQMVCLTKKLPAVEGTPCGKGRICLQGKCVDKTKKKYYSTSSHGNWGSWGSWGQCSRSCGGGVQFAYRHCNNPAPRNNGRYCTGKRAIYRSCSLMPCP
Description: Biacore, mAb down, no avidity. (SPR reads the build-up and loss of mass on a sensor chip optically.)

Assay [2] addresses T1, human ADAMTS5. In words: Octet QK, antigen down, incl avidity. (In general: In BLI a coated tip is dipped into the sample, and binding shifts an interference pattern.)
Assay [3] concerns the target T1, human ADAMTS5. In words: Biacore, mAb from culture supernatant captured on anti-human IgG, ADAMTS5 (R&D 2198-AD) at 64 nM, 1:1 fit. The procedure: Anti-human IgG (Biacore™, BR-1008-39) was immobilized on a CM5 chip by primary amine coupling. This surface was then used to capture the humanized antibodies, ADAMTS5 (R&D Systems 2198-AD) was then passed over the captured antibody at a single concentration of 64 nM, regeneration was carried out using 100 mM phosphoric acid followed by 3M MgCl₂. The binding curves were double referenced with buffer injection (i.e. 0 nM) and the data was fitted to the T100 analysis software using the 1:1 model. The run was carried out at 25° C., using HBS-EP as the running buffer. All antibodies were captured from tissue culture supernatants unless specified.

B1: BPC1634 (antibody, human IgG1, kappa, V domains shown)
VH: EVQLVESGGGLVQPGGSLRLSCAASGFTFSDAWMDWVRQAPGKGLEWVAEIRNKANNHARHYAESVKGRFTISRDNAKNSLYLQMNSLRAEDTAVYYCARTYYYGSSYGYCDVWGQGTLVTVSS
VL: DIQMTQSPSSLSASVGDRVTITCRTSENIYSYLAWYQQKPGKAPKLLIYNAKTLAEGVPSRFSGSGSGTDFTLTISSLQPEDFATYYCQHHYGTPWTFGQGTKLEIKR
notes: Humanized, human gamma 1 / kappa; also called 7B4 H0L0; Humanized 7B4.1E11 H0L0
In general, koff refers to the rate constant with which the complex falls apart. Read a high koff as a short-lived complex. The term kon denotes the second-order rate constant of association. Read a low kon as slower complex formation. Molecule B1 showed a Kd with human ADAMTS5 [1] of 0.869 nM. In the assay with human ADAMTS5 [2], this molecule gave a Kd of 0.205 nM. In the assay with human ADAMTS5 [3], this molecule yielded a Kd of 0.869 nM, a koff of 0.000481 s⁻¹ and a kon of 554000 M⁻¹ s⁻¹.

B2: BPC1652 (antibody, human IgG1, kappa, V domains shown)
VH: EVQLVESGGGLVQPGGSLRLSCAASGFTSSDAWMDWVRQAPGKGLEWVAEIRNKANNHARHYAESVKGRFTISRDDAKNSLYLQMNSLRAEDTAVYYCTRTYYYGSSYGYCDVWGQGTLVTVSS
VL: DIQMTQSPSSLSASVGDRVTITCRTSENIYSYLAWYQQKPGKAPQLLVYNAKTLAEGVPSRFSGSGSGTDFTLTISSLQPEDFATYYCQHHYGTPWTFGQGTKLEIKR
notes: Humanized, human gamma 1 / kappa; also called 7B4 H4L2
Regarding B2, in the assay with human ADAMTS5 [3], the Kd is 1.08 nM, the koff is 0.00212 s⁻¹ and the kon came out at 1.96e+06 M⁻¹ s⁻¹.

B3: BPC1650 (antibody, human IgG1, kappa, V domains shown)
VH: EVQLVESGGGLVQPGGSLRLSCAASGFTSSDAWMDWVRQAPGKGLEWVAEIRNKANNHARHYAESVKGRFTISRDNAKNSLYLQMNSLRAEDTAVYYCARTYYYGSSYGYCDVWGQGTLVTVSS
VL: DIQMTQSPSSLSASVGDRVTITCRTSENIYSYLAWYQQKPGKAPQLLVYNAKTLAEGVPSRFSGSGSGTDFTLTISSLQPEDFATYYCQHHYGTPWTFGQGTKLEIKR
notes: Humanized, human gamma 1 / kappa; also called 7B4 H2L2
In the assay with human ADAMTS5 [3], B3 displayed a Kd of 1.09 nM, a koff of 0.00343 s⁻¹ and a kon of 3.14e+06 M⁻¹ s⁻¹.

B4: BPC1653 (antibody, human IgG1, kappa, V domains shown)
VH: EVQLVESGGGLVQPGGSLRLSCAASGFTSSDAWMDWVRQAPGKGLEWVAEIRNKANNHARHYAESVKGRFTISRDNAKNSVYLQMNSLRAEDTAVYYCTRTYYYGSSYGYCDVWGQGTLVTVSS
VL: DIQMTQSPSSLSASVGDRVTITCRTSENIYSYLAWYQQKPGKAPQLLVYNAKTLAEGVPSRFSGSGSGTDFTLTISSLQPEDFATYYCQHHYGTPWTFGQGTKLEIKR
notes: Humanized, human gamma 1 / kappa; also called 7B4 H5L2
Consider B4, for which, in the assay with human ADAMTS5 [3], the Kd came to 1.16 nM, the koff was 0.0026 s⁻¹ and the kon is 2.24e+06 M⁻¹ s⁻¹.

B5: BPC1651 (antibody, human IgG1, kappa, V domains shown)
VH: EVQLVESGGGLVQPGGSLRLSCAASGFTSSDAWMDWVRQAPGKGLEWVAEIRNKANNHARHYAESVKGRFTISRDNAKNSLYLQMNSLRAEDTAVYYCTRTYYYGSSYGYCDVWGQGTLVTVSS
VL: DIQMTQSPSSLSASVGDRVTITCRTSENIYSYLAWYQQKPGKAPQLLVYNAKTLAEGVPSRFSGSGSGTDFTLTISSLQPEDFATYYCQHHYGTPWTFGQGTKLEIKR
notes: Humanized, human gamma 1 / kappa; also called 7B4 H3L2
For B5, in the assay with human ADAMTS5 [3], the Kd was 1.19 nM, the koff amounted to 0.00315 s⁻¹ and the kon stood at 2.65e+06 M⁻¹ s⁻¹.

B6: BPC1649 (antibody, human IgG1, kappa, V domains shown)
VH: EVQLVESGGGLVQPGGSLRLSCAASGFTFSDAWMDWVRQAPGKGLEWVAEIRNKANNHARHYAESVKGRFTISRDNAKNSLYLQMNSLRAEDTAVYYCTRTYYYGSSYGYCDVWGQGTLVTVSS
VL: DIQMTQSPSSLSASVGDRVTITCRTSENIYSYLAWYQQKPGKAPQLLVYNAKTLAEGVPSRFSGSGSGTDFTLTISSLQPEDFATYYCQHHYGTPWTFGQGTKLEIKR
notes: Humanized, human gamma 1 / kappa; also called 7B4 H1L2
In the assay with human ADAMTS5 [3], B6 yielded a Kd of 1.27 nM, a koff of 0.0013 s⁻¹ and an on-rate constant (kon) of 1.02e+06 M⁻¹ s⁻¹.

B7: BPC1654 (antibody, human IgG1, kappa, V domains shown)
VH: EVQLVESGGGLVQPGGSLRLSCAASGFTSSDAWMDWVRQAPGKGLEWVAEIRNKANNHARHYAESVKGRFTISRDDAKNSVYLQMNSLRAEDTAVYYCTRTYYYGSSYGYCDVWGQGTLVTVSS
VL: DIQMTQSPSSLSASVGDRVTITCRTSENIYSYLAWYQQKPGKAPQLLVYNAKTLAEGVPSRFSGSGSGTDFTLTISSLQPEDFATYYCQHHYGTPWTFGQGTKLEIKR
notes: Humanized, human gamma 1 / kappa; also called 7B4 H6L2
Turning to B7, in the assay with human ADAMTS5 [3], the Kd amounted to 1.09 nM, the koff stood at 0.00114 s⁻¹ and the kon worked out at 1.04e+06 M⁻¹ s⁻¹.

B8: BPC1648 (antibody, human IgG1, kappa, V domains shown)
VH: EVQLVESGGGLVQPGGSLRLSCAASGFTFSDAWMDWVRQAPGKGLEWVAEIRNKANNHARHYAESVKGRFTISRDNAKNSLYLQMNSLRAEDTAVYYCARTYYYGSSYGYCDVWGQGTLVTVSS
VL: DIQMTQSPSSLSASVGDRVTITCRTSENIYSYLAWYQQKPGKAPQLLVYNAKTLAEGVPSRFSGSGSGTDFTLTISSLQPEDFATYYCQHHYGTPWTFGQGTKLEIKR
notes: Humanized, human gamma 1 / kappa; also called 7B4 H0L2
In the assay with human ADAMTS5 [3], B8 gave a Kd of 1.21 nM, a koff of 0.000951 s⁻¹ and a kon of 788000 M⁻¹ s⁻¹.

These data come from patent US20120095193A1 (published 2012).
